Assay results taken from publication PMC12149299 (Cell Discovery, 2025).

Tests used:
[1] = target: HIV-1 Env on TNF-α-activated ACH-2 latent HIV-1 cells (HIV-1 group M subtype B, BRU/LAI (ACH-2 …, UniProt P03377, strain)); assay: flow cytometry on cells; details: one partner purified
[2] = target: T1, HIV Env on HL2/3 cells (HIV-1 group M subtype B, HXB2 (stand-in …, UniProt P04578, strain)); assay: flow cytometry on cells; details: one partner purified
T1 construct: source: HL2/3 cells (NIH AIDS Program), expressing HIV Env, on the cell surface

[3] = target: T2, HIV-1 gp120 protein from the JRCSF.JB strain (HIV-1 group M subtype B, JRCSF (clone …, UniProt P20871, strain)); assay: ELISA; antigens (2 μg/mL) coated on 96-well plates overnight at 4 °C; antibodies serially diluted in disruption buffer, 1 h; HRP goat anti-human IgG, ABTS, 405 nm; details: both partners purified
[4] = target: HIV-1 gp120 protein from the YU2.DG strain (HIV-1 group M subtype B, YU-2 (clone …, UniProt P35961, strain)); assay: as above; details: both partners purified
[5] = target: HIV-1 gp120 protein from the BaL.01 strain (HIV-1 subtype B, BaL.01, UniProt Q2MKA9, strain); assay: as above; details: both partners purified
[6] = target: T2, HIV-1 gp120 protein from the JRCSF.JB …; assay: ELISA; details: both partners purified

Measured: binding result

B1: FD22 (antibody, V domains shown)
VH: QVQLSQSGGGAVQPGKSLTLSCRAYGFHLFSYVVVWVRQTPQNGLEWVAGAASGGWPQEFMNSVRGRFSISRDDYTVSLQMNALRVDDSGLYFCAQERGLHRLDGAVKFGRWFRAWGQGSQVVVTS
VL: QSALTQPASVSGSPGQSITLSCTGADNSVSWYQVVPGRAPKLLIFEVNVRPSEVSDRFSGSKSGDTASLTISRLQIEDESDYYCVTRRGDVTYLFGSGTRVSVL
notes: also called FD22-biotin
not listed: [6]
binds: all other assays above

B2: CH235.12 (antibody, V domains shown)
VH: QVRLAQYGGGVKRLGATMTLSCVASGYTFNDYYIHWVRQAPGQGFELLGYIDPANGRPDYAGALRERLSFYRDKSMETLYMDLRSLRYDDTAMYYCVRNVGTAGSLLHYDHWGSGSPVIVSS
VL: EIVLTQSPATLSASPGERVTLTCRASRSVRNNVAWYQHKGGQSPRLLIYDASTRAAGVPARFSGSASGTEFTLAISNLESEDFTVYFCLQYNNWWTFGQGTRVDIK
binds: [6]
